Test results: patent US10428140B2, “Anti-EphA4 antibody” (EISAI R&D MANAGEMENT CO., LTD., priority 2015, dated 2019)

Tests used:
Assay in all cases: Selectivity ELISA of humanized antibodies for human Eph receptor
Assay type in all cases: binding
Settings in all cases: coated protein 1 nM
human EphB1 = molecular target: T1, human EphB1 (Homo sapiens, UniProt P54762)
T1 construct: a protein of the extracellular region of each human Eph receptor fused with the SEAP protein and the His tag; made in house; host or cells: Expi293F cells (culture supernatant)
T1 sequence (P54762 18-540 limits assumed): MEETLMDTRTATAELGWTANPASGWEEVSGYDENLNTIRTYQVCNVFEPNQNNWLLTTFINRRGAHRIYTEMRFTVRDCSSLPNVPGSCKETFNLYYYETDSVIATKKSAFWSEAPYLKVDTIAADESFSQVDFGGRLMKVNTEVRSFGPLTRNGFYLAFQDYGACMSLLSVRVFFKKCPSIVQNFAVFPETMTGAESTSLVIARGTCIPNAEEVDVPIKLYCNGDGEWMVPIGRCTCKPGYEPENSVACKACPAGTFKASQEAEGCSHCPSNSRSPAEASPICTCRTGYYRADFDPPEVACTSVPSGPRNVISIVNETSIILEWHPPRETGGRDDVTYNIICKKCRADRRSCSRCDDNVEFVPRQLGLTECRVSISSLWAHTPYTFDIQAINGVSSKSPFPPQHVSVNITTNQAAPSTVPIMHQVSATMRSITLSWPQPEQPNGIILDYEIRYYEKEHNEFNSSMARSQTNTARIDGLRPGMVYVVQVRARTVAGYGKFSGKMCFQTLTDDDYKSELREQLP
How it was run: (§1)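 Steps: coat anti-His antibody; block, then 1% BlockAce overnight at 4 °C; add Eph receptor extracellular region-SEAP-His (1 nM final) 1 h; add humanized antibody 1 h; add HRP anti-IgG 1 h; develop TMB; stop with acid; read 450 nm.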

human EphB6 = molecular target: T2, human EphB6 (Homo sapiens, UniProt O15197)
T2 construct: a protein of the extracellular region of each human Eph receptor fused with the SEAP protein and the His tag; made in house; host or cells: Expi293F cells
T2 sequence (O15197 32-594 limits assumed): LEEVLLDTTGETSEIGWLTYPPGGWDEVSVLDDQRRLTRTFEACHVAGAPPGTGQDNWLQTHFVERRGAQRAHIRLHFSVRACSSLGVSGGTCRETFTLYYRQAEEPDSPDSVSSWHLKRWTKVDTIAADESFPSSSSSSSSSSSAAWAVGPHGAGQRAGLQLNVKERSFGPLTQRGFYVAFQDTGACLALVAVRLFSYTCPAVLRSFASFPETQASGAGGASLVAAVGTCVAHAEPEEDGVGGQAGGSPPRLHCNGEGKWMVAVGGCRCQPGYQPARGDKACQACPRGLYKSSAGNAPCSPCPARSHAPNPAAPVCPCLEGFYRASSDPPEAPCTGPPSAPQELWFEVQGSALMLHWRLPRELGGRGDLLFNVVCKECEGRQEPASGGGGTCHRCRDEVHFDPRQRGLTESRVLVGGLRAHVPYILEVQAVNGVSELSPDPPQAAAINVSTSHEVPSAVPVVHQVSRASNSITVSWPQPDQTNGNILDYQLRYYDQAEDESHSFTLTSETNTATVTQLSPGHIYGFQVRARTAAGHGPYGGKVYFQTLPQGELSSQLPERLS
How it was run: as §1

human EphB4 = molecular target: T3, human EphB4 (Homo sapiens, UniProt P54760)
T3 construct: a protein of the extracellular region of each human Eph receptor fused with the SEAP protein and the His tag; made in house; host or cells: Expi293F cells
T3 sequence (P54760 16-539 limits assumed): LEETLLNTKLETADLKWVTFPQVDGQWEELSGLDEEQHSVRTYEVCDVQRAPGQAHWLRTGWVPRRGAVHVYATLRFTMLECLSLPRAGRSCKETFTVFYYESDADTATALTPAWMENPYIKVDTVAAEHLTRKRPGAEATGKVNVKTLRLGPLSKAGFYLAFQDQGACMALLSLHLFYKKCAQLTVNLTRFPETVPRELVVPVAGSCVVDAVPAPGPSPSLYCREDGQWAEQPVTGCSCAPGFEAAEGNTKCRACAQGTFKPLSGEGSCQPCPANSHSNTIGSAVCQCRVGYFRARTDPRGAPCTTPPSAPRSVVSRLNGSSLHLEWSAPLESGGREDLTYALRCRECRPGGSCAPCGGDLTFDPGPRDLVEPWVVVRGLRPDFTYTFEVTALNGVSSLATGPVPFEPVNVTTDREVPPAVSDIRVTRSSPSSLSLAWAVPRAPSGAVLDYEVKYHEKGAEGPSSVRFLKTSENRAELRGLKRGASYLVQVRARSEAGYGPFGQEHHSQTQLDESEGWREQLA
How it was run: as §1

B1: 73 (antibody, V domains shown)
VH: QIQLVQSGSELKKPGASVKVSCKASGYTFTDYSMHWVRQAPGQGLKWMGWINTETGEPTYADDFKGRFVFSLDTSVSTAYLQISSLKAEDTAVYYCARIPLYYYGSRYWYFDVWGQGTTVTVSS
VL: EIVMTQSPATLSVSPGERATLSCRASENIYRNLAWYQQKPGQSPRLLIYAATNLADGIPARFSGSGSGTEYTLTISSLQSEDFAVYYCQHFWGTPWTFGQGTKVEIK
modifications: synthetic humanized antibody heavy chain variable region sequence; synthetic humanized antibody light chain variable region sequence
hEphB1-SEAP-: absorbance at 450 nm, percentage with respect to hEphA4-SEAP-His as 100% (human EphB1): 5.7%
hEphB6-SEAP-: absorbance at 450 nm, percentage with respect to hEphA4-SEAP-His as 100% (human EphB6): 5.6%
hEphB4-SEAP-: absorbance at 450 nm, percentage with respect to hEphA4-SEAP-His as 100% (human EphB4): 5.7%

B2: 143 (antibody, V domains shown)
VH: QIQLVQSGSELKKPGASVKVSCKASGYTFTDYSMHWVRQAPGQGLKWMGWINTETGEPTYADDFKGRFVFSLDTSVSTAYLQISSLKAEDTAVYYCARIPLYYYGSRYWYFDVWGQGTTVTVSS
VL: DIQMTQSPSSLSASVGDRVTITCRASENIYRNLAWYQQKPGKAPKLLVYAATNLADGVPSRFSGSGSGTDYTLTISSLQPEDFATYYCQHFWGTPWTFGQGTKVEIK
modifications: synthetic humanized antibody heavy chain variable region sequence; synthetic humanized antibody light chain variable region sequence
hEphB1-SEAP-: absorbance at 450 nm, percentage with respect to hEphA4-SEAP-His as 100% (human EphB1): 5.9%
hEphB6-SEAP-: absorbance at 450 nm, percentage with respect to hEphA4-SEAP-His as 100% (human EphB6): 5.6%
hEphB4-SEAP-: absorbance at 450 nm, percentage with respect to hEphA4-SEAP-His as 100% (human EphB4): 5.9%

B3: 139 (antibody)
VH: QVQLVQSGSELKKPGASVKVSCKASGYTFTDYSMHWVRQAPGQGLEWMGWINTETGEPTYAQGFTGRFVFSLDTSVSTAYLQISSLKAEDTAVYYCARIPLYYYGSRYWYFDVWGQGTTVTVSS
VL: DIQMTQSPSSLSASVGDRVTITCRASENIYRNLAWYQQKPGKAPKLLVYAATNLADGVPSRFSGSGSGTDYTLTISSLQPEDFATYYCQHFWGTPWTFGQGTKVEIK
chain: ASTKGPSVFPLAPSSRSTSESTAALGCLVKDYFPEPVTVSWNSGALTSGVHTFPAVLQSSGLYSLSSVVTVPSSNFGTQTYTCNVDHKPSNTKVDKTVERKSCVECPPCPAPPAAAPSVFLFPPKPKDTLMISRTPEVTCVVVDVSHEDPEVQFNWYVDGVEVHNAKTKPREEQFNSTFRVVSVLTVVHQDWLNGKEYKCKVSNKGLPAPIEKTISKTKGQPREPQVYTLPPSREEMTKNQVSLTCLVKGFYPSDIAVEWESNGQPENNYKTTPPMLDSDGSFFLYSKLTVDKSRWQQGNVFSCSVMHEALHNHYTQKSLSLSPG
modifications: synthetic humanized antibody heavy chain variable region sequence; synthetic humanized antibody light chain variable region sequence; synthetic antibody constant region sequence
hEphB1-SEAP-: absorbance at 450 nm, percentage with respect to hEphA4-SEAP-His as 100% (human EphB1): 5.5%
hEphB6-SEAP-: absorbance at 450 nm, percentage with respect to hEphA4-SEAP-His as 100% (human EphB6): 5.9%
hEphB4-SEAP-: absorbance at 450 nm, percentage with respect to hEphA4-SEAP-His as 100% (human EphB4): 5.7%

B4: 142 (antibody, V domains shown)
VH: QVQLVQSGSELKKPGASVKVSCKASGYTFTDYSMHWVRQAPGQGLKWMGWINTETGEPTYADDFKGRFVFSLDTSVSTAYLQISSLKAEDTAVYYCARIPLYYYGSRYWYFDVWGQGTTVTVSS
VL: DIQMTQSPSSLSASVGDRVTITCRASENIYRNLAWYQQKPGKAPKLLVYAATNLADGVPSRFSGSGSGTDYTLTISSLQPEDFATYYCQHFWGTPWTFGQGTKVEIK
modifications: synthetic humanized antibody heavy chain variable region sequence; synthetic humanized antibody light chain variable region sequence
hEphB1-SEAP-: absorbance at 450 nm, percentage with respect to hEphA4-SEAP-His as 100% (human EphB1): 5.6%
hEphB6-SEAP-: absorbance at 450 nm, percentage with respect to hEphA4-SEAP-His as 100% (human EphB6): 5.6%
hEphB4-SEAP-: absorbance at 450 nm, percentage with respect to hEphA4-SEAP-His as 100% (human EphB4): 5.7%

B5: 141 (antibody, V domains shown)
VH: QVQLVQSGSELKKPGASVKVSCKASGYTFTDYSMHWVRQAPGQGLEWMGWINTETGEPTYADDFKGRFVFSLDTSVSTAYLQISSLKAEDTAVYYCARIPLYYYGSRYWYFDVWGQGTTVTVSS
VL: DIQMTQSPSSLSASVGDRVTITCRASENIYRNLAWYQQKPGKAPKLLVYAATNLADGVPSRFSGSGSGTDYTLTISSLQPEDFATYYCQHFWGTPWTFGQGTKVEIK
modifications: synthetic humanized antibody heavy chain variable region sequence; synthetic humanized antibody light chain variable region sequence
hEphB1-SEAP-: absorbance at 450 nm, percentage with respect to hEphA4-SEAP-His as 100% (human EphB1): 5.4%
hEphB6-SEAP-: absorbance at 450 nm, percentage with respect to hEphA4-SEAP-His as 100% (human EphB6): 5.4%
hEphB4-SEAP-: absorbance at 450 nm, percentage with respect to hEphA4-SEAP-His as 100% (human EphB4): 5.4%

B6: 140 (antibody, V domains shown)
VH: QVQLVQSGSELKKPGASVKVSCKASGYTFTDYSMHWVRQAPGQGLKWMGWINTETGEPTYAQGFTGRFVFSLDTSVSTAYLQISSLKAEDTAVYYCARIPLYYYGSRYWYFDVWGQGTTVTVSS
VL: DIQMTQSPSSLSASVGDRVTITCRASENIYRNLAWYQQKPGKAPKLLVYAATNLADGVPSRFSGSGSGTDYTLTISSLQPEDFATYYCQHFWGTPWTFGQGTKVEIK
modifications: synthetic humanized antibody heavy chain variable region sequence; synthetic humanized antibody light chain variable region sequence
hEphB1-SEAP-: absorbance at 450 nm, percentage with respect to hEphA4-SEAP-His as 100% (human EphB1): 5.3%
hEphB6-SEAP-: absorbance at 450 nm, percentage with respect to hEphA4-SEAP-His as 100% (human EphB6): 5.2%
hEphB4-SEAP-: absorbance at 450 nm, percentage with respect to hEphA4-SEAP-His as 100% (human EphB4): 5.4%

B7: 138 (antibody, V domains shown)
VH: QIQLVQSGSELKKPGASVKVSCKASGYTFTDYSMHWVRQAPGQGLKWMGWINTETGEPTYAQGFTGRFVFSLDTSVSTAYLQISSLKAEDTAVYYCARIPLYYYGSRYWYFDVWGQGTTVTVSS
VL: DIQMTQSPSSLSASVGDRVTITCRASENIYRNLAWYQQKPGKAPKLLVYAATNLADGVPSRFSGSGSGTDYTLTISSLQPEDFATYYCQHFWGTPWTFGQGTKVEIK
modifications: synthetic humanized antibody heavy chain variable region sequence; synthetic humanized antibody light chain variable region sequence
hEphB1-SEAP-: absorbance at 450 nm, percentage with respect to hEphA4-SEAP-His as 100% (human EphB1): 5.1%
hEphB6-SEAP-: absorbance at 450 nm, percentage with respect to hEphA4-SEAP-His as 100% (human EphB6): 5.0%
hEphB4-SEAP-: absorbance at 450 nm, percentage with respect to hEphA4-SEAP-His as 100% (human EphB4): 5.2%
